From patent US20250339531A1, “DUX4 POLYPEPTIDES AND NUCLEIC ACIDS FOR TREATING INFLAMMATORY AND AUTOIMMUNE CONDITIONS” (Fred Hutchinson Cancer Center, priority 2021, published 2025)

Tested on: proteins that co-immunoprecipitated with DUX4-CTD constructs expressed in MB135 myoblasts
Test: LC-MS of proteins co-immunoprecipitated with DUX4-CTD (Table 1) and western validation
Assay type: binding, human
Set-up: key to 4. mL1dL2 + Dox + IFNG / 4. + IFNG mix / 4. longCTD + Dox + IFNG / 3. + IFNg + Dox longCTD / 3. + Dox longCTD / 3. + IFNG longCTD: peptide-spectrum matches (PSMs) per protein
Conditions: kind of count not given; for 4. + IFNG mix: LC-MS value per protein co-immunoprecipitated from MB135 myoblasts, + IFNG mix sample (no Dox); for 4. mL1dL2 + Dox + IFNG: LC-MS value per protein co-immunoprecipitated with DUX4-CTD construct mL1dL2 in MB135 myoblasts
Procedure, shortened: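 Two independent experiments compared uninduced, doxycycline and doxycycline+IFNG MB135iDUX4-CTD (plus MB135iDUX4mL1dL2) myoblasts. Anti-FLAG pulldowns (3 h, 4 °C) were eluted in LDS buffer for western validation or with FLAG peptide for trypsin digestion and Orbitrap LC-MS; hits needed ≥2 PSMs in both experiments, ranked by total PSMs.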

B1: IGKV2-40 (protein, UniProt A0A087WW87 20-121, looked up)
Immunoglobulin kappa variable …: EDIVMTQTPLSLPVTPGEPASISCRSSQSLLDSDDGNTYLDWYLQKPGQSPQLLIYTLSYRASGVPDRFSGSGSGTDFTLKISRVEAEDVGVYYCMQRIEFP
- 4. + IFNG mix: 5
- 4. mL1dL2 + Dox + IFNG: 1

B2: GNAI2 (protein)
chain: GCTVSAEDKAAAERSKMIDKNLREDGEKAAREVKLLLLGAGESGKSTIVKQMKIIHEDGYSEEECRQYRAVVYSNTIQSIMAIVKAMGNLQIDFADPSRADDARQLFALSCTAEEQGVLPDDLSGVIRRLWADHGVQACFGRSREYQLNDSAAYYLNDLERIAQSDYIPTQQDVLRTRVKTTGIVETHFTFKDLHFKMFDVGGQRSERKKWIHCFEGVTAIIFCVALSAYDLVLAEDEEMNRMHESMKLFDSICNNKWFTDTSIILFLNKKDLFEEKITHSPLTICFPEYTGANKYDEAASYIQSKFEDLNKRKDTKEIYTHFTCATDTKNVQFVFDAVTDVIIKNNLKDCGLF
- 4. + IFNG mix: 7
- 4. mL1dL2 + Dox + IFNG: 10

B3: ATP2B1 (protein)
chain: GDMANNSVAYSGVKNSLKEANHDGDFGITLAELRALMELRSTDALRKIQESYGDVYGICTKLKTSPNEGLSGNPADLERREAVFGKNFIPPKKPKTFLQLVWEALQDVTLIILEIAAIVSLGLSFYQPPEGDNALCGEVSVGEEEGEGETGWIEGAAILLSVVCVVLVTAFNDWSKEKQFRGLQSRIEQEQKFTVIRGGQVIQIPVADITVGDIAQVKYGDLLPADGILIQGNDLKIDESSLTGESDHVKKSLDKDPLLLSGTHVMEGSGRMVVTAVGVNSQTGIIFTLLGAGGEEEEKKDEKKKEKKNKKQDGAIENRNKAKAQDGAAMEMQPLKSEEGGDGDEKDKKKANLPKKEKSVLQGKLTKLAVQIGKAGLLMSAITVIILVLYFVIDTFWVQKRPWLAECTPIYIQYFVKFFIIGVTVLVVAVPEGLPLAVTISLAYSVKKMMKDNNLVRHLDACETMGNATAICSDKTGTLTMNRMTVVQAYINEKHYKKVPEPEAIPPNILSYLVTGISVNCAYTSKILPPEKEGGLPRHVGNKTECALLGLLLDLKRDYQDVRNEIPEEALYKVYTFNSVRKSMSTVLKNSDGSYRIFSKGASEIILKKCFKILSANGEAKVFRPRDRDDIVKTVIEPMASEGLRTICLAFRDFPAGEPEPEWDNENDIVTGLTCIAVVGIEDPVRPEVPDAIKKCQRAGITVRMVTGDNINTARAIATKCGILHPGEDFLCLEGKDFNRRIRNEKGEIEQERIDKIWPKLRVLARSSPTDKHTLVKGIIDSTVSDQRQVVAVTGDGTNDGPALKKADVGFAMGIAGTDVAKEASDIILTDDNFTSIVKAVMWGRNVYDSISKFLQFQLTVNVVAVIVAFTGACITQDSPLKAVQMLWVNLIMDTLASLALATEPPTESLLLRKPYGRNKPLISRTMMKNILGHAFYQLVVVFTLLFAGEKFFDIDSGRNAPLHAPPSEHYTIVFNTFVLMQLFNEINARKIHGERNVFEGIFNNAIFCTIVLGTFVVQIIIVQFGGKPFSCSELSIEQWLWSIFLGMGTLLWGQLISTIPTSRLKFLKEAGHGTQKEEIPEEELAEDVEEIDHAERELRRGQILWFRGLNRIQTQIRVVNAFRSSLYEGLEKPESRSSIHNFMTHPEFRIEDSEPHIPLIDDTDAEDDAPTKRNSSPPPSPNKNNNAVDSGIHLTIEMNKSATSSSPGSPLHSLETSL
- 4. + IFNG mix: 10
- 4. mL1dL2 + Dox + IFNG: 11

B4: PLOD2 (protein)
chain: ADSEKPSSIPTDKLLVITVATKESDGFHRFMQSAKYFNYTVKVLGQGEEWRGGDGINSIGGGQKVRLMKEVMEHYADQDDLVVMFTECFDVIFAGGPEEVLKKFQKANHKVVFAADGILWPDKRLADKYPVVHIGKRYLNSGGFIGYAPYVNRIVQQWNLQDNDDDQLFYTKVYIDPLKREAINITLDHKCKIFQTLNGAVDEVVLKFENGKARAKNTFYETLPVAINGNGPTKILLNYFGNYVPNSWTQDNGCTLCEFDTVDLSAVDVHPNVSIGVFIEQPTPFLPRFLDILLTLDYPKEALKLFIHNKEVYHEKDIKVFFDKAKHEIKTIKIVGPEENLSQAEARNMGMDFCRQDEKCDYYFSVDADVVLTNPRTLKILIEQNRKIIAPLVTRHGKLWSNFWGALSPDGYYARSEDYVDIVQGNRVGVWNVPYMANVYLIKGKTLRSEMNERNYFVRDKLDPDMALCRNAREMGVFMYISNRHEFGRLLSTANYNTSHYNNDLWQIFENPVDWKEKYINRDYSKIFTENIVEQPCPDVFWFPIFSEKACDELVEEMEHYGKWSGGKHHDSRISGGYENVPTDDIHMKQVDLENVWLHFIREFIAPVTLKVFAGYYTKGFALLNFVVKYSPERQRSLRPHHDASTFTINIALNNVGEDFQGGGCKFLRYNCSIESPRKGWSFMHPGRLTHLHEGLPVKNGTRYIAVSFIDP
- 4. + IFNG mix: 7
- 4. mL1dL2 + Dox + IFNG: 8

B5: JSRP1 (protein)
chain: MSMTTRAWEELDGGLGSCQALEDHSALAETQEDRASATPRLADSGSVPHDSQVAEGPSVDTRPKKMEKEPAARGTPGTGKERLKAGASPRSVPARKKAQTAPPLQPPPPPPALSEELPWGDLSLNKCLVLASLVALLGSAFQLCRDAVPGEAALQARVPEPWVPPSSAPREPSSPLPKFEAQAPPSAPPAPRAEAEVRPKIPGSREAAENDEEEPGEATGEAVREDRVTLADRGPKERPRREGKPRKEKPRKEERPKKERPRKEERPRAAREPREALPQRWESREGGHRPWARDSRDAEPRKKQAWVSPRRPDEEQRPGSRQKLRAGKGRD
- 4. mL1dL2 + Dox + IFNG: 1

B6: RBBP7 (protein)
chain: ASKEMFEDTVEERVINEEYKIWKKNTPFLYDLVMTHALQWPSLTVQWLPEVTKPEGKDYALHWLVLGTHTSDEQNHLVVARVHIPNDDAQFDASHCDSDKGEFGGFGSVTGKIECEIKINHEGEVNRARYMPQNPHIIATKTPSSDVLVFDYTKHPAKPDPSGECNPDLRLRGHQKEGYGLSWNSNLSGHLLSASDDHTVCLWDINAGPKEGKIVDAKAIFTGHSAVVEDVAWHLLHESLFGSVADDQKLMIWDTRSNTTSKPSHLVDAHTAEVNCLSFNPYSEFILATGSADKTVALWDLRNLKLKLHTFESHKDEIFQVHWSPHNETILASSGTDRRLNVWDLSKIGEEQSAEDAEDGPPELLFIHGGHTAKISDFSWNPNEPWVICSVSEDNIMQIWQMAENIYNDEESDVTTSELEGQGS
- 4. mL1dL2 + Dox + IFNG: 16

B7: NCEH1 (protein)
chain: MRSSCVLLTALVALAAYYVYIPLPGSVSDPWKLMLLDATFRGAQQVSNLIHYLGLSHHLLALNFIIVSFGKKSAWSSAQVKVTDTDFDGVEVRVFEGPPKPEEPLKRSVVYIHGGGWALASAKIRYYDELCTAMAEELNAVIVSIEYRLVPKVYFPEQIHDVVRATKYFLKPEVLQKYMVDPGRICISGDSAGGNLAAALGQQFTQDASLKNKLKLQALIYPVLQALDFNTPSYQQNVNTPILPRYVMVKYWVDYFKGNYDFVQAMIVNNHTSLDVEEAAAVRARLNWTSLLPASFTKNYKPVVQTTGNARIVQELPQLLDARSAPLIADQAVLQLLPKTYILTCEHDVLRDDGIMYAKRLESAGVEVTLDHFEDGFHGCMIFTSWPTNFSVGIRTRNSYIKWLDQNL
- 4. mL1dL2 + Dox + IFNG: 1

B8: AP2M1 (protein)
chain: MIGGLFIYNHKGEVLISRVYRDDIGSRQAADSAVFSSSGPFPGEWLEANRRNAVDAFRVNVIHARQQVRSPVTNIARTSFFHVKRSNIWLAAVTKQNVNAAMVFEFLYKMCDVMAAYFGKISEENIKNNFVLIYELLDEILDFGYPQNSETGALKTFITQQGIKSQHQTKEEQSQITSQVTGQIGWRREGIKYRRNELFLDVLESVNLLMSPQGQVLSAHVSGRVVMKSYLSGMPECKFGMNDKIVIEKQGKGTADETSKSGKQSIAIDDCTFHQCVRLSKFDSERSISFIPPDGEFELMRYRTTKDIILPFRVIPLVREVGRTKLEVKVVIKSNFKPSLLAQKIEVRIPTPLNTSGVQVICMKGKAKYKASENAIVWKIKRMAGMKESQISAEIELLPTNDKKKWARPPISMNFEVPFAPSGLKVRYLKVFEPKLNYSDHDVIKWVRYIGRSGIYETRC
- 4. mL1dL2 + Dox + IFNG: 1

B9: ATP5F1A (protein)
chain: QKTGTAEMSSILEERILGADTSVDLEETGRVLSIGDGIARVHGLRNVQAEEMVEFSSGLKGMSLNLEPDNVGVVVFGNDKLIKEGDIVKRTGAIVDVPVGEELLGRVVDALGNAIDGKGPIGSKTRRRVGLKAPGIIPRISVREPMQTGIKAVDSLVPIGRGQRELIIGDRQTGKTSIAIDTIINQKRFNDGSDEKKKLYCIYVAIGQKRSTVAQLVKRLTDADAMKYTIVVSATASDAAPLQYLAPYSGCSMGEYFRDNGKHALIIYDDLSKQAVAYRQMSLLLRRPPGREAYPGDVFYLHSRLLERAAKMNDAFGGGSLTALPVIETQAGDVSAYIPTNVISITDGQIFLETELFYKGIRPAINVGLSVSRVGSAAQTRAMKQVAGTMKLELAQYREVAAFAQFGSDLDAATQQLLSRGVRLTELLKQGQYSPMAIEEQVAVIYAGVRGYLDKLEPSKITKFENAFLSHVVSQHQALLGTIRADGKISEQSDAKLKEIVTNFLAGFEA
- 4. + IFNG mix: 6
- 4. mL1dL2 + Dox + IFNG: 4

B10: AHCYL1 (protein)
chain: SMPDAMPLPGVGEELKQAKEIEDAEKYSFMATVTKAPKKQIQFADDMQEFTKFPTKTGRRSLSRSISQSSTDSYSSAASYTDSSDDEVSPREKQQTNSKGSSNFCVKNIKQAEFGRREIEIAEQDMSALISLRKRAQGEKPLAGAKIVGCTHITAQTAVLIETLCALGAQCRWSACNIYSTQNEVAAALAEAGVAVFAWKGESEDDFWWCIDRCVNMDGWQANMILDDGGDLTHWVYKKYPNVFKKIRGIVEESVTGVHRLYQLSKAGKLCVPAMNVNDSVTKQKFDNLYCCRESILDGLKRTTDVMFGGKQVVVCGYGEVGKGCCAALKALGAIVYITEIDPICALQACMDGFRVVKLNEVIRQVDVVITCTGNKNVVTREHLDRMKNSCIVCNMGHSNTEIDVTSLRTPELTWERVRSQVDHVIWPDGKRVVLLAEGRLLNLSCSTVPTFVLSITATTQALALIELYNAPEGRYKQDVYLLPKKMDEYVASLHLPSFDAHLTELTDDQAKYLGLNKNGPFKPNYYRY
- 4. mL1dL2 + Dox + IFNG: 1
